Three substances from article PMC4454188 can be followed below.

The target of experiment [1] is Strep-3xFLAG-DotJ (E. coli) (L. pneumophila). In words: SEC.
In experiment [2] the target is DotIC, C-terminal periplasmic domain of DotI (residues 73-212) (L. pneumophila). Kind of experiment: crystal structure.
Experiment [3] shares this target. Kind of experiment: SEC-MALS.
Experiment [4] has as its target His-TraM (R64 TraM, full length) (plasmid R64). In words: SEC-MALS.

With “DotI (produced in E. coli with Strep-3xFLAG-DotJ) (natural protein)”, the stoichiometry N (DotI per DotJ) in experiment [1] worked out at 1.87.

In experiment [2], “DotIC, C-terminal periplasmic domain of DotI (residues 73-212) (domain or fragment)” displayed a stoichiometry N (subunits in a ring (two rings stacked)) of 8. The substance further registered a stoichiometry N in experiment [3] of 16. For “His-TraM (R64 TraM, full length) (natural protein)”, the stoichiometry N in experiment [4] came to 6.
